Source: patent US20230265183A1 (MABWELL SHANGHAI BIOSCIENCE, published 2023)
Substitutions are numbered along the chain they refer to.

T1: human Nectin-2(C-6His), Novoprotein Cat# C440 (human, UniProt Q92692 32-360, limits assumed)
T1 sequence: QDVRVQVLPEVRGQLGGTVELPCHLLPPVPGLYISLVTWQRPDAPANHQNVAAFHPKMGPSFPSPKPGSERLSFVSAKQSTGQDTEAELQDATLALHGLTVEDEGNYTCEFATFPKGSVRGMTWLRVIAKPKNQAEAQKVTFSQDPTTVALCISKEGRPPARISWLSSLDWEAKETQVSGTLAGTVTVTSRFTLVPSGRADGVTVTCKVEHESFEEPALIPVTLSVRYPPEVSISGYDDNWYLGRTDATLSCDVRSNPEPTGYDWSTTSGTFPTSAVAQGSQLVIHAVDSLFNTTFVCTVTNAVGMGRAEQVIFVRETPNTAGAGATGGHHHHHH

T2: human Nectin-4 (human, UniProt Q96NY8 32-510)
T2 construct: whole, on cells; Cell-surface target of the FACS, endocytosis and proliferation assays (CHO-huNectin4 S8 cells, BT474 cells); the assay field says which cells; also called huNectin4; PVRL4
T2 sequence (looked up): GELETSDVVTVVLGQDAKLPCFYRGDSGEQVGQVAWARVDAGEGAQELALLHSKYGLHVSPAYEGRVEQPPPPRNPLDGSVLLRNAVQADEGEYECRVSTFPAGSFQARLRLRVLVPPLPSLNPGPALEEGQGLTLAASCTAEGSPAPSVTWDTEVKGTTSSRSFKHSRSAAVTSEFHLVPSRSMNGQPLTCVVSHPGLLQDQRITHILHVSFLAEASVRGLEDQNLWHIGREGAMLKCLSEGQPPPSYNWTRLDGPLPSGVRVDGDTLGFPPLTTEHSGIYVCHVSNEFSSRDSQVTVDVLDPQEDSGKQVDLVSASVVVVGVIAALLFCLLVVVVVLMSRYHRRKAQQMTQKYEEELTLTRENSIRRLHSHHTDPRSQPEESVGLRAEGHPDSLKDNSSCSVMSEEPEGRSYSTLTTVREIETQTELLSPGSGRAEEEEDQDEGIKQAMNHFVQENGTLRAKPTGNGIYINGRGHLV

T3: Cyno Nectin4 (Cyno, UniProt Q96NY8 32-510 (human entry))
T3 construct: Expressed on HEK293 cells (HEK-cynoNectin4)
T3 chain: T2 sequence (looked up) with V39A, I230V, A437T

T4: murine Nectin4 (NP_082169) (murine, UniProt Q8R007 31-508)
T4 construct: whole, on cells; also called muNectin4
T4 sequence (looked up): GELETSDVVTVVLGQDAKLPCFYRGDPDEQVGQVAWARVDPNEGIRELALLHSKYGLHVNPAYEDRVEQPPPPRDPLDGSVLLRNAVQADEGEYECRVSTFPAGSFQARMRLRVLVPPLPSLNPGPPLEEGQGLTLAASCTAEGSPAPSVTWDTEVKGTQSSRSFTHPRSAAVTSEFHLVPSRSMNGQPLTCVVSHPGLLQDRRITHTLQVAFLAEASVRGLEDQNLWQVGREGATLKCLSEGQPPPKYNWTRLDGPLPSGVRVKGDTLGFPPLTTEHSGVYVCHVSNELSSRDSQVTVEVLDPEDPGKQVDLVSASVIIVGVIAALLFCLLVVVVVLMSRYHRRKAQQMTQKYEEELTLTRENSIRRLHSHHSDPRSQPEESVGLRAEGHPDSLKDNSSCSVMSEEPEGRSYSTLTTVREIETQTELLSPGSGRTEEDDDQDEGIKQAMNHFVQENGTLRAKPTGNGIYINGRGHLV

T5: human Nectin-1(C-6His), Novoprotein Cat# C492 (human, UniProt Q15223 31-334, limits assumed)
T5 sequence: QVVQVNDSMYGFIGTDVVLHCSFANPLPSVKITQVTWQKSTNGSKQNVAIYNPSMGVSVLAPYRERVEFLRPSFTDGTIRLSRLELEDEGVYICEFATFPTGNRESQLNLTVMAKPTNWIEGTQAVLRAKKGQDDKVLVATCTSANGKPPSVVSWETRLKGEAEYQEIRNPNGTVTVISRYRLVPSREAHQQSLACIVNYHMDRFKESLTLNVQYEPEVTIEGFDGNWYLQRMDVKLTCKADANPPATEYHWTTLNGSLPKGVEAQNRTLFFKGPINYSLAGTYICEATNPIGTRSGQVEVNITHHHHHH

B1: Enfortumab (antibody, human IgG1, kappa, V domains shown)
VH: EVQLVESGGGLVQPGGSLRLSCAASGFTFSSYNMNWVRQAPGKGLEWVSYISSSSSTIYYADSVKGRFTISRDNAKNSLSLQMNSLRDEDTAVYYCARAYYYGMDVWGQGTTVTVSS
VL: DIQMTQSPSSVSASVGDRVTITCRASQGISGWLAWYQQKPGKAPKFLIYAASTLQSGVPSRFSGSGSGTDFTLTISSLQPEDFATYYCQQANSFPPTFGGGTKVEIKR
notes: also called control antibody Enfortumab
B2: 42D20 hz10 (antibody, V domains shown)
VH: QVQLQESGPGLVKPSETLSLTCTVSGFSLIDYGVSWIRQPPGKGLEWIGVIWGDGKIYYNSVLKSRVTISKDNSKSQVSLKLSSVTAADTAVYYCAKQGGLLFYAMDYWGQGTLVTVSS
VL: DIVMTQSPDSLAVSLGERATINCKSSQSLLNSYSQKNYLAWYQQKPGQPPKLLIYFASTRESGVPDRFSGSGSGTDFTLTISSLQAEDVAVYYCQQHYNTPFTFGAGTKLELKR
notes: Humanized

Key:
[1] = target: T1, human Nectin-2(C-6His), Novoprotein …; assay: ELISA, plate coated with 1 µg/ml human Nectin-2(C-6His), absorbance at 450 nm. The text names only a goat anti-rabbit HRP secondary antibody
Procedure: (§1) Plates were coated with 1 µg/ml of the antigens and incubated at 4° C. overnight; next, antibodies serially diluted were added into the plates. Finally, the HRP-labeled secondary antibody was added, and absorbance at 450 nm was detected.

human Nectin-4 [2] = target: T2, human Nectin-4; assay: FACS on CHO-huNectin4 S8 cells
Cyno Nectin4 = target: T3, Cyno Nectin4; assay: FACS on HEK-cynoNectin4 cells
[3] = target: T4, murine Nectin4 (NP_082169); assay: FACS on HEK-muNectin4 cells
human Nectin-4 [4] = target: T2, human Nectin-4; assay: FACS on BT474 cells
Procedure: The solutions of different concentrations were added to 384-well plates, 10 µl per well.
BT474 cells (breast cancer cells) expressing Nectin-4 on the cell surface were collected by centrifugation at 100 g at room temperature for 5 minutes, and then the cells were washed with PBS containing 0.5% BSA once and were centrifuged at 100 g at room temperature for 5 minutes. […] After incubation at 4° C. for 1 hour, fluorescently labeled goat anti-human IgG secondary antibody was added. After continued incubation at 4° C. for 1 hour, mean fluorescence readings of the cell populations were analyzed by a flow cytometer.
The experiment results of the binding of engineered humanized molecules of the present disclosure to BT474 cells by FACS assay are shown in panels 3B and 3C in FIG. 3 and Tables 6 and 7.

[5] = target: T5, human Nectin-1(C-6His), Novoprotein …; assay: ELISA, plate coated with 1 µg/ml human Nectin-1(C-6His), absorbance at 450 nm. The text names only a goat anti-rabbit HRP secondary antibody
Procedure: as §1

Row | Binder | binding result [1] | EC50 (human Nectin-4 [2]) | EC50 (Cyno Nectin4) | EC50 [3] | EC50 (human Nectin-4 [4]) | binding result [5]
1 | B1 | no binding (tested: 10 µg/ml) | 0.513 µg/mL | 0.948 to 2.07 µg/mL | 2.43 µg/mL | 0.0503 µg/mL | no binding (tested: about 2.5 µg/ml (last point))
2 | B2 | no binding (tested: 10 µg/ml) | 0.801 µg/mL | 2.42 to 4.97 µg/mL | 8.74 µg/mL | 0.0528 µg/mL | no binding (tested: about 2.5 µg/ml (last point))
